Results reported in the supplement of paper PMC10471632, “Protein engineering and iterative multimodule optimization for vitamin B6 production in Escherichia coli” (Nature Communications, 2023).
± gives the standard deviation of the averaged measurements.

B1: library; numbered along this chain (parent)
chain: MAELLLGVNIDHIATLRNARGTAYPDPVQAAFIAEQAGADGITVHLREDRRHITDRDVRILRQTLDTRMNLEMAVTEEMLAIAVETKPHFCCLVPEKRQEVTTEGGLDVAGQRDKMRDACKRLADAGIQVSLFIDADEEQIKAAAEVGAPFIEIHTGCYADAKTDAEQAQELARIAKAATFAASLGLKVNAGHGLTYHNVKAIAAIPEMHELNIGHAIIGRAVMTGLKDAVAEMKRLMLEARG

Variants of: B1
Experiment: pyridoxine titer in culture supernatant of strain expressing the PdxJ variant; higher = more PN produced (higher in vivo pathway activity of the PdxJ variant)
Conditions: host strain: E. coli LL006; 48 h; temperature: 37 °C; FM1.4
Experimental: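 Rosetta-designed single to quadruple mutants of E. coli PdxJ (PNP synthase) were expressed from pRSFDuet-1 in the engineered chassis E. coli LL006 (MG1655 ΔpdxH::pdxST, pta::Eme_pdxP). Strains were grown in 24 deep-well plates in 2 mL FM1.4 glycerol medium at 37 °C and 800 rpm for 48 h. Extracellular pyridoxine (PN) titer was quantified by HPLC with fluorescence detection; two biological replicates, with the WT pdxJ strain (LL137, about 0.5 mg/L) as control.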
Variant T196C I218L has a pyridoxine titer of 0.22 ± 0.057 mg/L. Variant A23T V44I E104T L212I has a pyridoxine titer of 4.95 ± 0.43 mg/L. Y24I I219G gave a pyridoxine titer of 0.95 ± 0.23 mg/L. Work on I218V yielded a pyridoxine titer of 0.374 ± 0.063 mg/L. Variant E100I V101L T196C A217M has a pyridoxine titer of 2 ± 0.12 mg/L. G21M V44I T196C showed a pyridoxine titer of 1.94 ± 0.23 mg/L. Work on T22V A23T yielded a pyridoxine titer of 1.74 ± 0.23 mg/L. A23T I219G gave a pyridoxine titer of 0.76 ± 0.16 mg/L. D11C A23T I218L gave a pyridoxine titer of 0.39 ± 0.17 mg/L. E100I V101L T196C gave a pyridoxine titer of 0.81 ± 0.21 mg/L. H12M T196C showed a pyridoxine titer of 1.02 ± 0.014 mg/L. With A23T V44I T196W L212I the pyridoxine titer was 2.89 ± 0.96 mg/L. Variant T15C A19Q V44I has a pyridoxine titer of 0.48 ± 0.057 mg/L. Work on E100I E104T yielded a pyridoxine titer of 0.98 ± 0.2 mg/L. I13V E104T T196R L212I gave a pyridoxine titer of 4.01 ± 0.7 mg/L. Variant I10L T103L E104T has a pyridoxine titer of 8.08 ± 0.54 mg/L. Variant G194C I218L has a pyridoxine titer of 1.33 ± 0.76 mg/L. I13V V44L E104T T196C showed a pyridoxine titer of 0.824 ± 0.7 mg/L. T15I V101L T196C gave a pyridoxine titer of 0.44 mg/L. Variant V101L A217V has a pyridoxine titer of 0.74 ± 0.2 mg/L. With A23T V44I V101L L212I the pyridoxine titer was 8.38 ± 1.2 mg/L. D11N showed a pyridoxine titer of 1.88 ± 0.18 mg/L. With L195G L212I the pyridoxine titer was 0.89 ± 0.014 mg/L. Variant I10L T103L I218L has a pyridoxine titer of 0.29 ± 0.057 mg/L. L195I showed a pyridoxine titer of 0.848 ± 0.15 mg/L. I13V E104T L212I gave a pyridoxine titer of 6.61 ± 2.6 mg/L. With I13V E100W E104T L212I the pyridoxine titer was 0.293 ± 0.15 mg/L. I10L G194C T196L I218L gave a pyridoxine titer of 0.562 ± 0.075 mg/L. Work on G21M T103L yielded a pyridoxine titer of 0.63 ± 0.33 mg/L. For I10L T22V E104T, the pyridoxine titer was 0.875 ± 0.11 mg/L. In the case of I10L T22V E104T H155N, the pyridoxine titer is reported as 2.5 ± 0.35 mg/L. Work on A23T G194C T196M I219G yielded a pyridoxine titer of 6.96 ± 5.8 mg/L. For I154L I219G, the pyridoxine titer was 1.93 mg/L. Variant H155I has a pyridoxine titer of 3.05 ± 1.1 mg/L. For I10L T22V A23T I219C, the pyridoxine titer was 1.49 ± 0.02 mg/L. For I10L T103L L212I, the pyridoxine titer was 0.43 ± 0.071 mg/L. A23T G194C I219G gave a pyridoxine titer of 0.873 ± 0.37 mg/L. For A23T E104T G194K L212I, the pyridoxine titer was 0.349 ± 0.013 mg/L. With H155I I218L the pyridoxine titer was 0.66 ± 0.014 mg/L. In the case of I10L H12L T103L, the pyridoxine titer is reported as 0.18 ± 0.028 mg/L. I13V E100I L212I showed a pyridoxine titer of 6.04 ± 1.9 mg/L. In the case of I10L T22V A23T G194Q, the pyridoxine titer is reported as 0.91 ± 0.11 mg/L. Variant I13V E100I G194K L212I has a pyridoxine titer of 0.324 ± 0.15 mg/L. A19Q G21M gave a pyridoxine titer of 1.17 ± 0.38 mg/L. With A23Y E104T G194C I218L the pyridoxine titer was 0.22 ± 0.013 mg/L. For E104T L212I, the pyridoxine titer was 2.65 ± 0.071 mg/L. A217V I219G gave a pyridoxine titer of 0.77 ± 0.11 mg/L. T103L L212I A217V gave a pyridoxine titer of 0.903 ± 0.052 mg/L. Variant I10L G194C I218L I219L has a pyridoxine titer of 1.09 ± 0.14 mg/L. Work on V101L T196C yielded a pyridoxine titer of 2.16 ± 0.085 mg/L. With D11C T196C the pyridoxine titer was 0.43 ± 0.028 mg/L. In the case of T103L T196C L212I, the pyridoxine titer is reported as 0.33 mg/L. Variant V101L T103L L212I has a pyridoxine titer of 0.81 ± 0.014 mg/L. For I13V L212I, the pyridoxine titer was 1.07 ± 0.3 mg/L. Work on I154L yielded a pyridoxine titer of 1.72 ± 1.6 mg/L. I13V G21M E104T T196C gave a pyridoxine titer of 1.98 ± 0.077 mg/L. For G194C, the pyridoxine titer was 0.64 ± 0.33 mg/L. Work on I10L I13V T196V L212I yielded a pyridoxine titer of 0.575 ± 0.077 mg/L. In the case of I13V E104T G194Q T196C, the pyridoxine titer is reported as 0.3065 ± 0.0012 mg/L. In the case of I13V V44L E104T L212I, the pyridoxine titer is reported as 0.354 ± 0.0062 mg/L. I13V I154L T196C showed a pyridoxine titer of 0.52 ± 0.014 mg/L. N213I gave a pyridoxine titer of 1.76 ± 0.13 mg/L. A23T E104T T196V L212I showed a pyridoxine titer of 2.61 ± 0.1 mg/L. In the case of E100I V101L, the pyridoxine titer is reported as 2.12 ± 0.11 mg/L. Variant H12M A14I T196C has a pyridoxine titer of 1.49 ± 0.28 mg/L. With I10L T196C the pyridoxine titer was 0.61 ± 0.028 mg/L. In the case of I10L T22V A23T E100I, the pyridoxine titer is reported as 1.17 ± 0.23 mg/L. For H12M, the pyridoxine titer was 1.79 ± 0.07 mg/L. With G21M G194C the pyridoxine titer was 0.6 ± 0.014 mg/L. I10L G194C T196Y I218L showed a pyridoxine titer of 0.378 ± 0.044 mg/L. Variant A23T T103L L212I has a pyridoxine titer of 0.46 ± 0.014 mg/L. I13V E104T T196C gave a pyridoxine titer of 9.62 ± 0.33 mg/L. In the case of I219G, the pyridoxine titer is reported as 1.3 ± 0.31 mg/L. Variant A23T Y24V has a pyridoxine titer of 0.39 ± 0.028 mg/L. With E100I T103L L212I the pyridoxine titer was 0.66 ± 0.47 mg/L. For I10L T22V E104T I219L, the pyridoxine titer was 2.93 ± 0.16 mg/L. E104T G194C T196Y I218L gave a pyridoxine titer of 0.557 ± 0.059 mg/L. With N213I I218L the pyridoxine titer was 1.1 ± 0.14 mg/L. G194C T196V N213I I218L showed a pyridoxine titer of 2.28 ± 1 mg/L. Work on I13V yielded a pyridoxine titer of 4.14 ± 0.062 mg/L. In the case of A23T T196W L212I, the pyridoxine titer is reported as 1.71 ± 0.54 mg/L. A19Q gave a pyridoxine titer of 1.02 ± 0.045 mg/L. Work on I10L V101L E104T yielded a pyridoxine titer of 2.46 ± 2 mg/L. In the case of G194C N213I I218L, the pyridoxine titer is reported as 9.12 ± 0.45 mg/L. I13V H155R L212I gave a pyridoxine titer of 0.22 ± 0.042 mg/L. For I10L V101L, the pyridoxine titer was 1.46 ± 0.37 mg/L. In the case of A23T E104T I154L, the pyridoxine titer is reported as 2.31 ± 0.92 mg/L. For I10L V101L T103L E104T, the pyridoxine titer was 1.611 ± 0.0023 mg/L.
